Article PMC12147180

Columns and labels:
CCR9-RlucII (human) [1] = target: CCR9-RlucII (human) (UniProt P51686)
CCR9 ΔCT (human) = CCR9 ΔCT (human) (UniProt P51686)
[2] = target: CCR9 C1 (CCR9-RlucII with S335A/T347A/S352A/S356A/S357A) (human) (UniProt P51686)
[3] = target: CCR9 C1 + C2 (CCR9-RlucII with all C-tail phosphorylation sites changed to alanine) (human) (UniProt P51686)
CCR9-RlucII (human) [4] = target: CCR9-RlucII (human) (UniProt P51686); remark: listed apart in the source

Chain of Gαq-Nluc (P50148 whole entry): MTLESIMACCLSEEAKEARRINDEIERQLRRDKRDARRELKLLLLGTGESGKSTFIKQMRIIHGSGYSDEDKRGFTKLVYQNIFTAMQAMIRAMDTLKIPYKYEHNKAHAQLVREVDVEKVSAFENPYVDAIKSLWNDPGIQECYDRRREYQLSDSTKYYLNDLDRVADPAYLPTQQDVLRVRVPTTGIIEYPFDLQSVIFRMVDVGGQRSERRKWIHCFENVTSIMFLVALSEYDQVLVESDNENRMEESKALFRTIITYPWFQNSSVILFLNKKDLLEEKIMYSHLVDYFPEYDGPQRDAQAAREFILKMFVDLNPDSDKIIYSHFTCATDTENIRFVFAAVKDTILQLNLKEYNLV
Chain of Gαi-Nluc (P63096 whole entry): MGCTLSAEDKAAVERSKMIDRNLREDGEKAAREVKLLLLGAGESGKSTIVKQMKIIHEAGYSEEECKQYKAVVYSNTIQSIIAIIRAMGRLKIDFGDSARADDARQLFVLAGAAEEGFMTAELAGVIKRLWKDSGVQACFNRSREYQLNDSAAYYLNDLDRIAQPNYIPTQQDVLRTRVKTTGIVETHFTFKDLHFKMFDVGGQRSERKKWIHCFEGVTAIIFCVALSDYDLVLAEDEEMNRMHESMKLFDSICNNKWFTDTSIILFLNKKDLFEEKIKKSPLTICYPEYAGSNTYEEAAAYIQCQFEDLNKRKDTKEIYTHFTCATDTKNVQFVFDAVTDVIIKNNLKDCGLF

decrease in BRET between Gαi-Nluc and Gβγ-smV (G protein dissociation) in HEK293 cells with untagged CCR9, 100 nM CCL25; returns to basal levels within 10 min (CCR9-RlucII (human) [1]) [%] | area over the Gαi–Gβγ dissociation curve (AOC), against CCR9 WT (CCR9 ΔCT (human)) [fold] | maximal decrease in BRET between Gαi-Nluc and Gβγ-smV (G protein dissociation) in HEK293 cells, 100 nM CCL25 (CCR9 ΔCT (human)) [%] | Gαi-Nluc/Gβγ-smV dissociation BRET (AOC) in HEK293 cells with untagged CCR9 C1, 100 nM CCL25, against CCR9 WT [2] [fold] | Gαi-Nluc/Gβγ-smV dissociation BRET (AOC) in HEK293 cells with untagged CCR9 C1 + C2, 100 nM CCL25, against CCR9 WT [3] [fold] | area over the Gαq–Gβγ dissociation curve (AOC), against CCR9 WT (CCR9 ΔCT (human)) [fold] | maximal decrease in BRET between Gαq-Nluc and Gβγ-smV (G protein dissociation) in HEK293 cells, 100 nM CCL25 (CCR9 ΔCT (human)) [%] | decrease in BRET between Gαq-Nluc and Gβγ-smV (G protein dissociation) in HEK293 cells with untagged CCR9, 100 nM CCL25 (CCR9-RlucII (human) [4]) [%] | Substance
2 | 6 | 7 | 2 | 2 | – | – | – | Gαi-Nluc (from UniProt P63096 1-354) (natural protein)
– | – | – | – | – | 4 | 5 | 0 | Gαq-Nluc (from UniProt P50148 1-359) (natural protein)
